Assay results reported in the nanobody polyreactivity screen of Harvey et al. (2022).

Assay: yeast display, Sf9 membrane polyspecificity reagent, FACS + sequencing; frameworks hold sequencing errors
In short: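 Galactose-induced (36–48 hours) yeast carrying a synthetic nanobody display library were exposed to 10% biotinylated, detergent-solubilized Sf9 membrane reagent at 4 °C for 1 hour. FACS followed streptavidin microbead enrichment, using low and high (top ~1%) gates for expression (anti-HA) and reagent binding (streptavidin). Colony PCR, MiSeq 2 × 250 sequencing and CDR-length filtering followed. Labels for polyreactivity reflect the gate of origin.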

QVQLVESGGGLVQAGGSLRLSCAASGSTFTRNAMGWYRQAPGKEWELVAAITSSGGSTYYAASVKGRFTISRDNAKNTVYLQMNSLKPEDNAVYYCAAYPHRPRDPELDHWGQGTQVTVSS
polyreactivity (PSR sort gate): low polyreactivity

QVQLVDSGGGLGQAGGSLRLSCAASGIIISGYAMGWYRQAPGKERELVASIRSGSNTYYADSVKGRFTISRDNAKNTVYLQKNSLNPEDTAVYYCAARVVPATFRFIRYPNTYYYWGQGSQVTVSS
polyreactivity (PSR sort gate): low polyreactivity

QVQLVESGGGLVQAGGSLRLSCAASGSSKLMLWDGIDRRLGKKGSWLPLFVLVVLRNYADSVKGRFTISRDNAKNTVFLHMNSLKPEDTAVYYCAATPIGSGGWGDYWGQGTQVTVSS
polyreactivity (PSR sort gate): low polyreactivity

QVQLVESGGGLVQAGGSLRLSCAASGFTFPPYAMGWYRQAPGKERELVAAISSAGSTKYADSVKGRFTISRDNAKNTVYLQMNSLKPEDSAVYYCDKKGRTARGRYDYWGQGTQVTVSS
polyreactivity (PSR sort gate): low polyreactivity

QVHLVESRGVLVQAGGSLRLSCAASGRTFGYYAMGWYRQAPGKERELVAAINGSGSRTYYADSVKGRFTISRDNAKNSVYLQMNSLKPEDSAVYYCAATYPKYQYDYWGQGTQVTVSS
polyreactivity (PSR sort gate): high polyreactivity

QVQLVESGGGLVQAGGSLRLSCAASGRTFRYYAMGWYRQAPGKERELVAAISQTGARTYYADSVKGRFTISRDNAKNTVYLQMNSLKPEDTAVYYCNAYSRSGHQSDGYDYWGQGTQVTVSS
polyreactivity (PSR sort gate): high polyreactivity

QVQLVESGGGIVQAGGSLRLSCAASGFTFGSNAMGWYRQAPGKERELVAAISRSSGRTYYADSVKGRFTISRDNAKNNVYLHMNSLKQEDTAVYYCDAQTPYRISLQYYYWGQGTQVTVSS
polyreactivity (PSR sort gate): high polyreactivity

QVQLVESGGGLVHAGGSLRLSCAASGIIFYLYAMGWYRQAPGKERELVAAISRRGVSTYYADSVKGRFTISRDNAKNTVYLQMNSLKTEDTAVYYCAAAGFGYTGEEYWGQGTQVTVSS
polyreactivity (PSR sort gate): high polyreactivity

QVQLVESGGGLVQAGGSLRLSCAASGYIVGAYAKGWYRQAPGKERELVAGITASGDSTYYADSVKGRFTISRDNAKNTVYLQMKCLKPEDTAVYYCNAQPDIGLYDRQWKEPYEYWGQGTQVTVSS
polyreactivity (PSR sort gate): low polyreactivity

QVQLVESGGGLVQAGGSLRLSCAASGRTFSTYAMGWYRQAPGKERELVAAITTSGGNTYYADSVKGRFTISRDNAKNTVYLQMNSLKPEDTAVYYCNADYFPTYDYWGQGTQVTVSS
polyreactivity (PSR sort gate): low polyreactivity

QVQLEESGGGLVQAGGSLSLSCDASGRNFEGYAMGWYRQAPGKERELVAAINWSGGTTHYADSVKGRFTISRDNANNTVYLQINSLKPADTAVYYCAVRGRTPYDYWGQGTQVTVSS
polyreactivity (PSR sort gate): low polyreactivity

QVQLVESGGGLVQAGGSLRLSSPASGRTFGRYTMGWYRQAPGKESELVATISYNGGRTYYADSVKGRFTISRDNAKNTVYLQMNSRKPEDTAVNYCATRLPKSSLHDYWGQGTQVTVSS
polyreactivity (PSR sort gate): high polyreactivity

QVQLVESGGGLVQAGGSLRLSCAASGRTFSAYAMGWYRQAPGKERELVAAISRRGGSTYYADSVKGRFTISRDNAKNTVYLQMNSLKPEDTAVYYCAAKIYYRSRAEMDWGQGTQVTVSS
polyreactivity (PSR sort gate): high polyreactivity

QVQLVESGGGLVQAGGSLRLSCAASGRTFWRNAMGWYRQAPGKERELVAAISRGGSTKYADSVKGRFTISRDNAKNTVYLQMNSLKPEDTAVYYCAAATPGRYGYWGQGTQVTVSS
polyreactivity (PSR sort gate): high polyreactivity

QVQLVESAGGLVQAGGSLRLSCAASGITFRYYAMGWYRQAPGKERELVATITRGGSTYYADSVKGRFTISRDNAKNTVYLQMNSLKPEDTAVYYCAARSYVPSYDYWGQGTQVTVSS
polyreactivity (PSR sort gate): high polyreactivity

QVQLVESGGGLVQAGGSLRLRCAASGSIFYLYAMGWFRRAPGKERELVAASSRSGASTYYADSVKGRFTISRDNAKNTVYLQMNSLKPEDTAVYYGAADYNSQLARIYDYWGQGTQVTVSS
polyreactivity (PSR sort gate): low polyreactivity

QVQLVESGGGLVQAGGSLRLSCAASGLIFDRNAMGWYRQAPGKERELVAAITYSGSRTYYADSVKGRFTISRDNAKNTVYLQMNSLKPEDTAVYYCAARHRYSAGTEYNYWGQGTQVTVSS
polyreactivity (PSR sort gate): high polyreactivity

QVQLVESGGGLVQAGGSLRLRCAASGSTFYWNAMGWYRQAPGKERELVATITYSGGSTYYADSVKGRFTISRDNAKNTVYLQMNSLKPEDTAVYYCATGGLTWHYTYRGYYWGQGTQVTVSS
polyreactivity (PSR sort gate): low polyreactivity

QVQLVESGGGLVQAGGSLRLSCAASGSTFFVNAMGWYRQAPGKERELVAAISTSGGRTYYADSVKGRFTISRDNAKNTVYLQMNSLKPEDTAVYYCAAYLRSPKGYYYWGQGTQVTVSS
polyreactivity (PSR sort gate): high polyreactivity

QVQLVESGGGLVQAGGSLRLSCAASGRTFGYNAMGRYRQAPGKERELVAAIRYSGGSTYYADSVKGRFTISRDNAKNTVYLQMNSLKPEDTAVYYCAKESRRYYRGYYYWGQGTQVTVSS
polyreactivity (PSR sort gate): high polyreactivity

QVQLVESGGGLVQAGGSLRVSCAASGSIFCPYTMGWNRQAPGKERELVAAITRSGGSTYYADSVKGRFTISRDNGKNTVYLQMNSLKPEDTAVFYCAARGQAYSGDRMYYWGQGTQVTVSS
polyreactivity (PSR sort gate): high polyreactivity

QVQLVESGGGLVQAGGSLRLSCAASGLIFEPYVMGWYRQAPGKERELVASITWSAGSTYYADSVKGRFTISRDNAKNTVYLQMNSLKPDDTAVYYCAARHGYGWGFSGVPAQGYEYWGQGTQVTVSS
polyreactivity (PSR sort gate): low polyreactivity

QVQLVESGGGLVQAGGSLRLSCAASGSIFFGYGMGWYRQAPGKERELVATITTSGGTYYADSVKGRFTISRDNAKNTVYLQMNSLKPEDTAVYYCNKEDYGLYPYYVSVGYDYWGQGTQVTVSS
polyreactivity (PSR sort gate): low polyreactivity

QVKLVESGGGLVQAGGTLRLSCAASGSISWVYAMGWYRQAPGKERELVADITDSGDSTYYADSVKGRFTISRDNAKNTVYLQMNSLKPEDTAVFYCAAVSGPFVQTSGNGEYDYCGQGTQVTVSS
polyreactivity (PSR sort gate): low polyreactivity

QVQLVESGGGLVQAGGSLRLSCAASGFTASYAMGWYRQAPWKERELVATINSGGGSTRYADSVKGRFTISRDNAKNTVYLQMNSLKPEDTAVYYCAKRWRRNFDYWGQGTQVTVSS
polyreactivity (PSR sort gate): high polyreactivity

QVQLQESGGGLVQAGGSLRLSCAASGNISSYYRMGWYRHAPGKEREFVATIAVGGTTNYADSVKGRFTISRDNAKNTVYLQMNSLKPEDTAVCFCAANCNQYTWFDYWGQGTQVPVSS
polyreactivity (PSR sort gate): low polyreactivity

QVQLVESGGGLVQAGGSLRLSCAASGSIFIHNAMGWYRQAPGKERELVPGITTGGSTYYADSVKGRFTISRDNAKNTVYLQMNSLKPEDTAVYYCATARSYLTYSYHYDYWGQGTQVTVSS
polyreactivity (PSR sort gate): low polyreactivity

QVQLVESGGGLVQAGVSLRLSCAASGSIFGYYAMGWYRQAPGKERELVAAINYSGVSTYYADSVKGRFTISRDNAKNTVYLQMNSLKPDDTAVYYCAAKGRKSVYSRNSWGQGTQVTVSS
polyreactivity (PSR sort gate): high polyreactivity

QVQLVESGGCLVQAGGSLRLSCAASGFTFTTYAMGWYRQAPGKEREFVAALTKRGGRTYYADSVKGRFTISRDNAKITVYLQMNSLKPEDTAVYYCNKVVHSFPFPYRYDMDYWGQGTQVTVSS
polyreactivity (PSR sort gate): high polyreactivity

QVQLVESGGGVVQAGGMLRLSCAASGTTFDVYAMGGYRQAPGKEREFVAAITTSGGSTYYADSVKGRFSISRDNAKNTVYLEMYSLKPEVTAVYYCAAVWWKSFQGSSYRMNYWGQGTQVTVSS
polyreactivity (PSR sort gate): high polyreactivity

QVLQVESGGGVVQAGGSLRLSCSASGSTIGNKTMGWYRQAPGKEREFVAAITESGGGTYADSVKGRFTISRDNAKNTVYLQMNSLKPEDNAVYYSAAVWYIWPFAFYYWGEGTQVTVSS
polyreactivity (PSR sort gate): high polyreactivity

QVQLVESGGGLVQAGGSLRLSCAASGFIFSSYAMAWYRQAPGKERDLVAAISKSGDRTSYADSVKGRFTISRDNAKNTVYLQMNSLKPEDTAVYYCAKDRLYRTKKYRDMYYWGQGTQVSVSS
polyreactivity (PSR sort gate): high polyreactivity

QVQLVESGGGLVQAGGSLRLSCAASGNTFYYYCMGWYRQAPGKERELVAAISSSGTSTYYADSVKGRFTISRDNAKNTVYLQMNSLKPEDTAVYYCARRTDRRTGPMYSWGQGTQVTVSS
polyreactivity (PSR sort gate): high polyreactivity

QVQLVESGGGLVQAGGSLRLSCAASGRIFSIYAMGWYRQAPGKEREFVAAITQSGGSTYYADSVKGRFTISRDNAKNTVYLQMNSLKPEDTAVYYCAADEWGVRSEYDYWGQGTQVTVSS
polyreactivity (PSR sort gate): low polyreactivity

QVQLVESGGGLVQAGGSLRLSCAASGSTFDVNAMGWYRQAPGKERELVAAISFSGGSTYYADSVKGRFTISRDNAKNTVYLQMNSLKPEDTAVYYCADYDYWGQGTQVTVSS
polyreactivity (PSR sort gate): low polyreactivity

QVQLVESGGGLVQAGGSLRLSCAASGITFGRNTMGWYRQAPGKERELVAAIDSGGNTYADSVKGRFTISRDNAKNTVYLQMNSLKPEDTAVYYCNARSYYGYGRYDYWGQGTQVTVSS
polyreactivity (PSR sort gate): low polyreactivity

QVQLVESGGGLVQAGGSLRLTCGASGFTFDSYAMGWSRQEPGKERELVAAISTIGGRTYYADSVKGRFTISRDNAKNTVYLQMNSLKPEDTAVYYCAAEQGTPSTNWYDYWGQGTQVTVSS
polyreactivity (PSR sort gate): low polyreactivity

QVQLVESGGGLVQAGGSLRLSCAASGSIFPANAMGWYRQAPGKERELVAGISERGSSTYYADSVKGRFTISRDNAKNTDYLQMNSLKPEDTAVYYCAADDVGRYWSYTHNWARGDYWGQGTQVTVSS
polyreactivity (PSR sort gate): low polyreactivity

QVQLVESGGGLVQAGGSLRLSCAASGFIFDNNAMGWYRQAPGKERELVADISESGGSTYYADSVKGRFTISRDNAKNTVYLQMNSLKPEDTAVYYCNADIESWYCEFDYWGQGTQVTVSS
polyreactivity (PSR sort gate): low polyreactivity

QVQLVESGGGLVQAGGILRLICAASGSIFYYNAMGWSRQAPGKERELVAAITKSGTRTNYADSVKGRFTISRDNAKNTVYLQMNSLKPEDTAVYDCAAEDQYYRYVCAYEYWGQGTQVTVSS
polyreactivity (PSR sort gate): high polyreactivity

QVQLVESGGGLVQAGGSLRLSCAASGYNFYINPMGWYRQAPGKERELVATIRRRGGSTYYADSVKGRFTISRDNAKNTVYLQMNSLKPEDTAVYYCNAVTLGGKYVYQYRRGFDYWGQGTQVTVSS
polyreactivity (PSR sort gate): high polyreactivity

QVQLVESGGGLVQAGGRLRLSCAASGRTIPYYAMGWSRQSPGKDREFVAAISGGGGSTHYADSVKGRFTISRDNAKNTVYLQMNSLKPEDTAVYYCNADKYSVYGEHPYDYWGQGSQVTVSS
polyreactivity (PSR sort gate): low polyreactivity

QVQLVESGGGLVQAGGSLRLSCADSGSTFKGYTMGWYRQAPGKERELVAAIRSRSGNTYYADSVKGRFTISRDNAKNHVYLLMNSLKPEETAVYYCAAVQPYVDYDSWGQGTQVTVSS
polyreactivity (PSR sort gate): high polyreactivity
